Reference: patent publication US20130064834A1 (published 2013)
Values belong to the binder of their own block, whether it stands above or below them.

Legend:
Human PCSK9-myc-myc-his = molecular target: T1, Human PCSK9-myc-myc-his (human, UniProt Q8NBP7 31-692); experiment: SPR, mAb captured on anti-hFc, 25C
T1 construct: also called hPCSK9-mmh; hPCSK9

[1] = molecular target: T2, tagged rhesus monkey (Macaca mulata) PCSK9 (rhesus monkey (Macaca mulata), UniProt A8T666 31-692); experiment: SPR, mAb captured on anti-hFc, 25C
T2 construct: also called mmPCSK9-mmh; mmPCSK9

hPCSK9(D374Y)-mmh = molecular target: T3, hPCSK9(D374Y)-mmh (human, UniProt Q8NBP7 31-692); experiment: SPR, mAb captured on anti-hFc, 25C
T3 construct: also called hPCSK(D374Y)-mmh

[2] = molecular target: T4, cynomolgus monkey (Macaca fascicularis) PCSK9, myc-myc-his tagged (cynomolgus monkey (Macaca fascicularis), UniProt A8T662 31-692 (Macaca nemestrina entry), limits assumed); experiment: SPR, mAb captured on anti-hFc, 25C
T4 construct: also called mfPCSK9-mmh; mfPCSK9

[3] = molecular target: T5, mouse PCSK9, myc-myc-his tagged (mouse, UniProt Q80W65 35-694); experiment: SPR, mAb amine-coupled, 37C, pH 7.4
T5 construct: also called mPCSK9-mmh; mPCSK9
Text: (§1) Briefly, mAbs were immobilized onto BIACORE™ CM5 sensor chips via amine coupling.

[4] = molecular target: T6, his-tagged Syrian golden hamster (Mesocricetus auratus) PCSK9 (Syrian golden hamster (Mesocricetus …)); experiment: SPR, mAb amine-coupled, 37C, pH 7.4
T6 construct: also called maPCSK9-h; maPCSK9
T6 chain: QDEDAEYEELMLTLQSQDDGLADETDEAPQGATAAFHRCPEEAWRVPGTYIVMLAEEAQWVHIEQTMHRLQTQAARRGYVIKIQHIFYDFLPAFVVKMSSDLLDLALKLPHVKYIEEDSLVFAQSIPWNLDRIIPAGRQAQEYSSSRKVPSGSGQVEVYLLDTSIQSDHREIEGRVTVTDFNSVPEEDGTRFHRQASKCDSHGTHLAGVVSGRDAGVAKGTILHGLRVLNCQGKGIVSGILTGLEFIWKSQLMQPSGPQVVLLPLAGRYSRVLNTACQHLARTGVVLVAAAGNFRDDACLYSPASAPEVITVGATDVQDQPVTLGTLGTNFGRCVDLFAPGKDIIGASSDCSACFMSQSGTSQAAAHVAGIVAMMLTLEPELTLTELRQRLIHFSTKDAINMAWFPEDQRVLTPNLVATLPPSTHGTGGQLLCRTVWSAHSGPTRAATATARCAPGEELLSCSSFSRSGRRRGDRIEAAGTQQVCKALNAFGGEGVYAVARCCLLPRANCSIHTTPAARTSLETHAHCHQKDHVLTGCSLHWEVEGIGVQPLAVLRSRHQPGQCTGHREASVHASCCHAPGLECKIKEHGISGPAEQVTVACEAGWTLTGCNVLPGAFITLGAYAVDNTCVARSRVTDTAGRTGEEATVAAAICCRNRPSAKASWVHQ
Text: as §1

[5] = molecular target: T7, rat (Rattus norvegicus) PCSK9, myc-myc-his tagged (rat (Rattus norvegicus), UniProt P59996 31-691); experiment: SPR, mAb amine-coupled, 37C, pH 7.4
T7 construct: also called rPCSK9-mmh; rPCSK9
Text: as §1

[6] = molecular target: T8, human PCSK1, myc-myc-his tagged (human, UniProt P29120 111-753, limits assumed); experiment: ELISA, mAb coated
T8 construct: also called hPCSK1-mmh; hPCSK1
T8 sequence: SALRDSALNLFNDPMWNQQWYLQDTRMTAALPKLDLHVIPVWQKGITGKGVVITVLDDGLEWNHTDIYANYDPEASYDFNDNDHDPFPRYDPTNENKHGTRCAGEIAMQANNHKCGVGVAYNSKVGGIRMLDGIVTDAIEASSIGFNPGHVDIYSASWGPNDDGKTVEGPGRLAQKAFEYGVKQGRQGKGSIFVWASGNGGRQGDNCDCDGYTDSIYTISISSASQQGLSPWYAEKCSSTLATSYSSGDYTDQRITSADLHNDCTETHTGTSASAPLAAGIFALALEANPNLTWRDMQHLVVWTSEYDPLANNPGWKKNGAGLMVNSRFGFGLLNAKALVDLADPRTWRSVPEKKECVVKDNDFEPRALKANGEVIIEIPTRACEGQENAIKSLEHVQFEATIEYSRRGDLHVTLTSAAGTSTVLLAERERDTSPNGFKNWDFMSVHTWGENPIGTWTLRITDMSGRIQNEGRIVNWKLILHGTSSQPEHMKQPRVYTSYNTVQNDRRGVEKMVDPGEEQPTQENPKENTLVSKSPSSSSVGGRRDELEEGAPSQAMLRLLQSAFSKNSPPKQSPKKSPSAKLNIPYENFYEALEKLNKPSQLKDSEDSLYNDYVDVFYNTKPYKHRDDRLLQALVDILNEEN

[7] = molecular target: T9, human PCSK7, myc-myc-his tagged (human, UniProt Q16549 142-667, limits assumed); experiment: ELISA, mAb coated
T9 construct: also called hPCSK7-mmh; hPCSK7
T9 sequence: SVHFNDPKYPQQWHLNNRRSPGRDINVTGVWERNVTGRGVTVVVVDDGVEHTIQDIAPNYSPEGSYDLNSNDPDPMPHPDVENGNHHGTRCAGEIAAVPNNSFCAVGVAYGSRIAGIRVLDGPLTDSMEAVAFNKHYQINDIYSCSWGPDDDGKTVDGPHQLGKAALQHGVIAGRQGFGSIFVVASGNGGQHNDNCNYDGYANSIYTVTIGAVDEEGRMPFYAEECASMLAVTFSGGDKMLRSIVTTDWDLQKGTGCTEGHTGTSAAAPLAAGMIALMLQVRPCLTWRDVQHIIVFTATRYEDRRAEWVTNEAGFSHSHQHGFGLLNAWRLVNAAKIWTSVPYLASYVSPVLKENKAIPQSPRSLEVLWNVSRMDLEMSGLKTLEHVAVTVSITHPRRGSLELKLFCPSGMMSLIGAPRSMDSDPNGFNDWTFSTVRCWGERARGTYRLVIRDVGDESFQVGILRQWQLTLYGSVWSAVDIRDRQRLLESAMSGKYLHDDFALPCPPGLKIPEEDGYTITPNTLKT

[8] = molecular target: T6, his-tagged Syrian golden hamster …; experiment: SPR, mAb amine-coupled, 25C, pH 7.4
Text: as §1

[9] = molecular target: T7, rat (Rattus norvegicus) PCSK9, …; experiment: SPR, mAb amine-coupled, 25C, pH 7.4
Text: as §1

T7 sequence (P59996 31-691 limits assumed): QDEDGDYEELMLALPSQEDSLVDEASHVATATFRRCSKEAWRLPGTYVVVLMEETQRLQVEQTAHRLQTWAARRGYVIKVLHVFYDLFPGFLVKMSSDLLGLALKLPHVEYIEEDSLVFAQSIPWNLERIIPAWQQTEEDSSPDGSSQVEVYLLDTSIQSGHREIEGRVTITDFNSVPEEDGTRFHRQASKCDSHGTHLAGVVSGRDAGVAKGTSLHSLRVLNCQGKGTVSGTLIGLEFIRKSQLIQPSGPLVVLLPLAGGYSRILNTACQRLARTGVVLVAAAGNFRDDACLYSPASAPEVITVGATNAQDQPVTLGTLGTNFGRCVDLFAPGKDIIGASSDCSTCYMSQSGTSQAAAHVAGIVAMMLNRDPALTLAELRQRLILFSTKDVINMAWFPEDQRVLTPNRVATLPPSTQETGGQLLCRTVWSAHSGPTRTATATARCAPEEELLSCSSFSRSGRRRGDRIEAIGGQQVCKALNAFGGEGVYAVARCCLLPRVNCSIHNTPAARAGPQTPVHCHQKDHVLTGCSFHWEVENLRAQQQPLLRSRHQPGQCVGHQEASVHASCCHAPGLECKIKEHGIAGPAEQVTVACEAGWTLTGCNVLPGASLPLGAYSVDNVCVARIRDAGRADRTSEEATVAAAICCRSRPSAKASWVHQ
T2 sequence (A8T666 31-692 limits assumed): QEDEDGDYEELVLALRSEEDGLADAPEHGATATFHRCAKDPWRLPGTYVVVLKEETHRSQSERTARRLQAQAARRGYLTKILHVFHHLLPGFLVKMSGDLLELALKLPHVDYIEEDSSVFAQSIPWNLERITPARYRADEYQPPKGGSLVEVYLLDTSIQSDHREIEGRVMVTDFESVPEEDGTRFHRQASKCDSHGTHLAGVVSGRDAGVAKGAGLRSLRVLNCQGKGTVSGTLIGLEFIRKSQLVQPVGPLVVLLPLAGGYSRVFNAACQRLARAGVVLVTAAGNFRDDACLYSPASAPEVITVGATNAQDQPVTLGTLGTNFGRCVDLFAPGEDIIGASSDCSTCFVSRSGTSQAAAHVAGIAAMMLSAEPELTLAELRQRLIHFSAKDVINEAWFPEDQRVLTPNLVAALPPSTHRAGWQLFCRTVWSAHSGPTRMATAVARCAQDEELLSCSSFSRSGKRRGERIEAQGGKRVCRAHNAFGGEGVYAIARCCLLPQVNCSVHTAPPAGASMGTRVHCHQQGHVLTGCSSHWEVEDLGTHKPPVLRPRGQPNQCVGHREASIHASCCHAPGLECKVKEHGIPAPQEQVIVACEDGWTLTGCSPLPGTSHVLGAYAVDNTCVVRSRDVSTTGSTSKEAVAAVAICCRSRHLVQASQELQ
T4 sequence (A8T662 31-692 limits assumed): as the sequence (A8T666 31-692 limits assumed) above, with P607A, K639E counted along it

Kd (Human PCSK9-myc-myc-his): 0.74 nM
T1/2 (Human PCSK9-myc-myc-his): 110 min
Kd [1]: 0.61 nM
T1/2 [1]: 79 min
Kd (hPCSK9(D374Y)-mmh): 0.9 nM
T1/2 (hPCSK9(D374Y)-mmh): 65 min
Kd [2]: 1.5 nM
T1/2 [2]: 45 min
B1: H1M300N (antibody, V domains shown)
VH: EMQLVESGGGLVQPGGSLRLSCAASGFTFSSHWMKWVRQAPGKGLEWVANINQDGSEKYYVDSVKGRFTISRDNAKNSLFLQMNSLRAEDTAVYYCARDIVLMVYDMDYYYYGMDVWGQGTTVTVSS
VL: not shown
notes: Fully human version made in CHO cells

B2: H1H316P (antibody, V domains shown)
VH: EVQLVESGGGLVQPGGSLRLSCAASGFTFNNYAMNWVRQAPGKGLDWVSTISGSGGTTNYADSVKGRFIISRDSSKHTLYLQMNSLRAEDTAVYYCAKDSNWGNFDLWGRGTLVTVSS
VL: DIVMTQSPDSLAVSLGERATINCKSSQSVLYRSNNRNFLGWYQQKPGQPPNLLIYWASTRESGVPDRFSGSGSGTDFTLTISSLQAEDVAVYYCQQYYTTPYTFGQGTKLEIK
notes: Fully human mAb made in CHO cells; also called mAb316P
Kd [3]: 12.2 nM
T1/2 [3]: 3 min
Kd [4]: 21.7 nM
T1/2 [4]: 2 min
Kd [5]: 55.1 nM
T1/2 [5]: 2 min
binding result [6]: no binding (tested: 1.2 nM)
binding result [7]: no binding (tested: 1.2 nM)
Kd [8]: 8.35 nM
T1/2 [8]: 8 min
Kd [9]: 24.1 nM
T1/2 [9]: 2 min
